Target: biotinylated histone H3 peptide trimethylated at lysine 27, H3K27me3 (21–44), P68431
Assay: peptide or protein array

B1: Pc2TF, bivalent polycomb-based transcription factor with the flexible linker (GGGGS)4, Q9HC52 1-62; Q9HC52 1-62 (designed binder)
chain: MELSAVGERVFAAEALLKRRIRKGRMEYLVKWKGWSQKYSTWEPEENILDARLLAAFEERERGGGGSGGGGSGGGGSGGGGSMELSAVGERVFAAEALLKRRIRKGRMEYLVKWKGWSQKYSTWEPEENILDARLLAAFEERER
modifications: not checked
- fold smaller Kd^app than PcTF: 2 fold
